Experimental data from PMC4332253 (The Journal of Cell Biology, 2015).
Ends that are not written are not given here.

T1: MBP-Cdc12 (aa 1–764) (S. pombe, UniProt Q10059 1-764)
T1 sequence (looked up): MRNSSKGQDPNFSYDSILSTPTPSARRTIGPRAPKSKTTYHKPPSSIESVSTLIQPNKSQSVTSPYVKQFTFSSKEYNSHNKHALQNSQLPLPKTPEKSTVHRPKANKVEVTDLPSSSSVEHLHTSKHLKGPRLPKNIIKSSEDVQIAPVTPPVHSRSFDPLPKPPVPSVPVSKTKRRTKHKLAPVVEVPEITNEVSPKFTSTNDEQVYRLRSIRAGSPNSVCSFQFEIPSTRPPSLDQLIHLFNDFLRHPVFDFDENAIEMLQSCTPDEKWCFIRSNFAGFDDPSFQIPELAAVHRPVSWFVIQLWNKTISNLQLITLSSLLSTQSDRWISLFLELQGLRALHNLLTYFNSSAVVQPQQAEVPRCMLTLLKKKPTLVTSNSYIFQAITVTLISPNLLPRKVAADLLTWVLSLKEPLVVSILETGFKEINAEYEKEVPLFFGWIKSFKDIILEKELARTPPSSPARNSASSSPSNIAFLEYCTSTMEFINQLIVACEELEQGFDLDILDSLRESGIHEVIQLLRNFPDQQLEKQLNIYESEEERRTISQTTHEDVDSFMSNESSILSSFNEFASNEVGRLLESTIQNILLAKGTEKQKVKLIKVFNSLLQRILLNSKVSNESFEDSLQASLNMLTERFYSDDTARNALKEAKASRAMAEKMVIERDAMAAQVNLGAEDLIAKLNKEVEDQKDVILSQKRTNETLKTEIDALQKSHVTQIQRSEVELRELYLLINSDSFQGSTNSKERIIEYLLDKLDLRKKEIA

B1: Cdc15 F-BAR (aa 19–312) (domain or fragment, S. pombe, UniProt Q09822 19-312, looked up)
chain: SVKFRDNFWGSEDAGMDALMSRTKSSLSVLESIDEFYAKRASIEREYASKLQELAASSADIPEVGSTLNNILSMRTETGSMAKAHEEVSQQINTELRNKIREYIDQTEQQKVVAANAIEELYQKKTALEIDLSEKKDAYEYSCNKLNSYMRQTKKMTGRELDKYNLKIRQAALAVKKMDAEYRETNELLLTVTREWIDRWTEVCDAFQHIEEYRLEFLKTNMWAYANIISTACVKDDESCEKIRLTLENTNIDEDITQMIQNEGTGTTIPPLPEFNDYFKENGLNYDIDQLISK

How the values were obtained:
MBP-Cdc12 (aa 1–764) = target: T1, MBP-Cdc12 (aa 1–764); assay: pull-down
Cdc15 F-BAR (aa 19–312) = target: B1; assay: pull-down

binding result (MBP-Cdc12 (aa 1–764))	Kd (Cdc15 F-BAR (aa 19–312))	Binder
binds		B1
	1.1 nM	TPTPSARRTIGPRAPKSKTTY (peptide, UniProt Q10059 20-40, looked up, also: biotinylated, position not given here) [Cdc12 (aa 20–40) synthetic peptide]
